Earlier results on three substances are cited in article PMC5951583.

Where two headings read alike, the source gives them in different places.

Data set [1] concerns the target Synaptotagmin-2 (Rattus norvegicus) (UniProt P29101).
Data set [2] addresses Syt-II (Rattus norvegicus) (UniProt P29101).
Data set [3] has as its target Synaptotagmin-2 (Rattus norvegicus) (UniProt P29101). As to the kind of experiment: SPR. Background: Surface plasmon resonance follows binding to a sensor surface in real time, without labels.
The target in data set [4] is Syt-II luminal domain (Rattus norvegicus) (UniProt P29101). As to the kind of experiment: ITC.
In data set [5] the target is Synaptotagmin-2 (Rattus norvegicus) (UniProt P29101). As to the kind of experiment: ITC. For orientation: In ITC the heat of successive injections is recorded.
Data set [6] shares this target. The source holds these as a separate data set.

As to BoNT/B (from UniProt P10844), the Kd (commonly the constant that tells how readily two partners part at equilibrium) in data set [1] was 0.23 nM; in data set [2], 7 nM; in data set [3], 0.6 nM.

As for “BoNT/B HC (HCB) HC (from UniProt P10844)”, the Kd in data set [4] was 34 nM.

Turning to BoNT/B HC HC (from UniProt P10844), the values for the dissociation constant Kd in data set [5] and in data set [6] were 34 nM and 7 nM, respectively.
